According to paper PMC8346688 (Redox Biology, 2021):

B1: BirA*-Flag-Prdx2 (natural protein, UniProt P32119 1-198, looked up)
chain: MASGNARIGKPAPDFKATAVVDGAFKEVKLSDYKGKYVVLFFYPLDFTFVCPTEIIAFSNRAEDFRKLGCEVLGVSVDSQFTHLAWINTPRKEGGLGPLNIPLLADVTRRLSEDYGVLKTDEGIAYRGLFIIDGKGVLRQITVNDLPVGRSVDEALRLVQAFQYTDEHGEVCPAGWKPGSDTIKPNVDDSKEYFSKHN
B2: His-Prdx2 (natural protein, UniProt P32119 1-198, looked up)
chain: B1 chain

Assays:
[1] = target: the molecule itself; test: non-reducing SDS-PAGE with western blot
[2] = target: the molecule itself; test: native gel or EMSA

Protein	stoichiometry N [1]	stoichiometry N [2]
B1	2	10
B2	2	10
